{"source": "patent US20260000736A1", "about": "“PURIFIED LACTOFERRIN COMPOSITIONS AND METHODS OF USE” (Lactea Therapeutics LLC, priority 2023, published 2026)", "key": {"[1]": {"system": "Extra-Cellular Matrix (ECM) of Caco-2 cells", "assay": "Lactoferrin enrichment at the ECM by immunofluorescent imaging in Caco-2 cells", "type": "cell-based, human", "conditions": "varying concentrations, 37° C. for two hours", "procedure": "To assess bioactivity of Lactoferrin, particularly for its potential as an antiviral, binding to the ECM was assessed. Purified Lactoferrin was produced according to Example 1. Caco-2 cells, a human-derived cell culture, cells were allowed to grow for three days after plating on a coverslip such that the cells could proliferate, and the ECM could fully develop. Purified Lactoferrin was then added to the cells at varying concentrations at 37° C. for two hours to allow it to bind as theorized. To directly observe the localization of the API we used Immunofluorescent (IF) imaging and stained both the API and E-cadherin, a cell membrane marker.\nPrimary localization internally was also observed at low concentrations, but given Lactoferrin has known intracellular roles and a receptor allowing for its uptake, fractional localization of Lactoferrin to the intracellular space was expected. To quantify the localization of the API, the absolute intensity of the fluorescent signal both just outside/along the E-cadherin mark as well as inside the cell was measured."}, "SARS-CoV-2": {"system": "SARS-CoV-2", "assay": "SARS-CoV-2 Cytopathic Effect (CPE) reduction assay in Vero E6 cells", "type": "cell-based", "conditions": "Vero E6 cells, MOI of 0.001, neutral red, three days post-infection"}, "[2]": {"system": "Salivary bacteria (including Lactobacillus, Lactococcus, and Streptococcus mutans)", "assay": "Salivary bacteria acid production, pH over time", "type": "cell-based", "conditions": "in the presence of sucrose, entire 6 hour testing period", "procedure": "Salivary bacteria (including Lactobacillus, Lactococcus, and Streptococcus mutans) produce acid during growth. This acidification is strongly associated with tooth decay, particularly when it results in pH below 5.5, which is a clinically relevant threshold. A slurry of these bacteria were treated with sucrose to stimulate growth, as well as varying concentrations of API-E2 lactoferrin. Upon the addition of sucrose and API-E2 lactoferrin, the pH was adjusted to 7 through a titration and the change in pH was subsequently monitored over the next 6 hours."}, "E. coli 0157": {"system": "E. coli 0157", "assay": "Biofilm formation, crystal violet assay", "type": "cell-based", "conditions": "for Biofilm Inhibition, Replicate 1 / Biofilm Inhibition, Replicate 2 / Biofilm Inhibition, Replicate 3: 24 hours", "procedure": "Lactoferrin was assessed for biofilm growth inhibition. To study the relative concentration dependent efficacy of Lactea-Lf and the Sigma Aldrich research standard Lactoferrin in inhibiting biofilm formation, Lf was added at concentrations ranging from 2 mg/mL to 0.31 mg/mL (2-fold serial dilution curve) to E. coli 0157 in LB seeded at 10∝CFU/mL and incubated for 37° C. for 24 hours. Lactea Lactoferrin (Lactea-Lf) was produced as described in the above examples. The biofilm was stained using a standard crystal violet assay. A quantification of the inhibition of biofilm formation (FIG. 18A) and an image of a representative plate (FIG. 18B) are shown."}, "Bifidobacterium longum": {"system": "Bifidobacterium longum", "assay": "Planktonic growth in culture, OD600", "type": "cell-based", "conditions": "10-fold serial dilution of Lf, 18 hours"}, "Escherichia coli": {"system": "Escherichia coli", "assay": "Biofilm formation, crystal violet assay", "type": "cell-based", "conditions": "24 hours of growth"}, "Staphylococcus aureus": {"system": "Staphylococcus aureus", "assay": "Biofilm formation, crystal violet assay", "type": "cell-based", "conditions": "24 hours of growth"}, "Cryptococcus neoformans": {"system": "Cryptococcus neoformans", "assay": "Biofilm formation, crystal violet assay", "type": "cell-based", "conditions": "24 hours of growth"}, "[3]": {"system": "mice with two 10 mm puncture wounds through the skin", "assay": "Mouse puncture wound model, survival", "type": "in vivo", "procedure": "(§1) Lactea Lactoferrin (Lactea-Lf) was produced as described in the above examples and freeze-dried by lyophilization into a powder. Lactea-Lf was then administered as the freeze-dried powder in a variety of animal wound contexts.\nIn a first assessment in a mouse model setting, mice were anesthetized with isoflurane and two 10 mm puncture wounds were made through the skin of each mouse on the back. Three of the mice were treated with Lf added as a freeze dried powder directly into the wound bed while anesthetized immediately after wounds were made, while the three other mice were left completely untreated. Mice were then transferred to non-sterile housing and observed daily."}, "[4]": {"system": "cow with a large infected chronic wound on its leg", "assay": "Case study of a cow with a large infected chronic wound", "type": "in vivo", "conditions": "three daily treatments as freeze dried powder into the wound bed", "procedure": "as §1\nFor these daily treatments, Lf was applied once on each day to cover the open wound area."}, "[5]": {"assay": "DSC of additional batches, ratio of apo to holo-Lactoferrin", "type": "physicochemical", "conditions": "5 mg/mL, 30° C. to 100° C. range", "procedure": "Additional batches of Lactea-Lf as described in the above examples and the relative ratio of apo to holo-Lactoferrin was assessed by Differential Scanning Calorimetry (DSC). Lactoferrin samples were loaded at 5 mg/mL into a NanoDSC (TI Instruments) and measured in the 30° C. to 100° C. range. […] It is likely that these peaks are smaller as the sample is highly impure or contains already denatured product."}}}
{"molecule": "Lactea-Lf: bovine lactoferrin purified from raw untreated milk by cation exchange chromatography and filtration according to Example 1 (protein) APRKNVRWCTISQPEWFKCRRWQWRMKKLGAPSITCVRRAFALECIRAIAEKKADAVTLDGGMVFEAGRDPYKLRPVAAEIYGTKESPQTHYYAVAVVKKGSNFQLDQLQGRKSCHTGLGRSAGWVIPMGILRPYLSWTESLEPLQGAVAKFFSASCVPCIDRQAYPNLCQLCKGEGENQCACSSREPYFGYSGAFKCLQDGAGDVAFVKETTVFENLPEKADRDQYELLCLNNSRAPVDAFKECHLAQVPSHAVVARSVDGKEDLIWKLLSKAQEKFGKNKSRSFQLFGSPPGQRDLLFKDSALGFLRIPSKVDSALYLGSRYLTTLKNLRETAEEVKARYTRVVWCAVGPEEQKKCQQWSQQSGQNVTCATASTTDDCIVLVLKGEADALNLDGGYIYTAGKCGLVPVLAENRKTSKYSSLDCVLRPTEGYLAVAVVKKANEGLTWNSLKDKKSCHTAVDRTAGWNIPMGLIVNQTGSCAFDEFFSQSCAPGRDPKSRLCALCAGDDQGLDKCVPNSKEKYYGYTGAFRCLAEDVGDVAFVKNDTVWENTNGESTADWAKNLNREDFRLLCLDGTRKPVTEAQSCHLAVAPNHAVVSRSDRAAHVKQVLLHQQALFGKNGKNCPDKFCLFKSETKNLLFNDNTECLAKLGGRPTYEEYLGTEYVTAIANLKKCSTSPLLEACAFLTR", "values": [{"measurement": "Lactoferrin localization at the ECM (IF imaging)", "setting": "[1]", "result": "enrichment at the ECM was observed as concentration increased"}, {"measurement": "EC50", "setting": "SARS-CoV-2", "result": 90, "unit": "nM"}, {"measurement": "pH of salivary bacteria slurry", "setting": "[2]; 1 mg/mL", "result": "above 5.5"}, {"measurement": "pH of salivary bacteria slurry", "setting": "[2]; 10 mg/mL", "result": "above 5.5"}, {"measurement": "concentrations at which potent biofilm inhibition is seen", "setting": "E. coli 0157; E. coli 0157, 24 hours", "result": "≥ 100", "unit": "µg/mL"}, {"measurement": "Biofilm Inhibition, Replicate 1", "setting": "E. coli 0157; [Lf] 0.031 mg/mL", "result": 0.6591}, {"measurement": "Biofilm Inhibition, Replicate 2", "setting": "E. coli 0157; [Lf] 0.031 mg/mL", "result": 0.8959}, {"measurement": "Biofilm Inhibition, Replicate 3", "setting": "E. coli 0157; [Lf] 0.031 mg/mL", "result": 0.7811}, {"measurement": "Biofilm Inhibition, Replicate 1", "setting": "E. coli 0157; [Lf] 0.063 mg/mL", "result": 0.1874}, {"measurement": "Biofilm Inhibition, Replicate 2", "setting": "E. coli 0157; [Lf] 0.063 mg/mL", "result": 0.1722}, {"measurement": "Biofilm Inhibition, Replicate 3", "setting": "E. coli 0157; [Lf] 0.063 mg/mL", "result": 0.2125}, {"measurement": "Biofilm Inhibition, Replicate 1", "setting": "E. coli 0157; [Lf] 0.125 mg/mL", "result": 0.03395}, {"measurement": "Biofilm Inhibition, Replicate 2", "setting": "E. coli 0157; [Lf] 0.125 mg/mL", "result": 0.1076}, {"measurement": "Biofilm Inhibition, Replicate 3", "setting": "E. coli 0157; [Lf] 0.125 mg/mL", "result": 0.0806}, {"measurement": "Biofilm Inhibition, Replicate 1", "setting": "E. coli 0157; [Lf] 0.25 mg/mL", "result": 0.04609}, {"measurement": "Biofilm Inhibition, Replicate 2", "setting": "E. coli 0157; [Lf] 0.25 mg/mL", "result": 0.07314}, {"measurement": "Biofilm Inhibition, Replicate 3", "setting": "E. coli 0157; [Lf] 0.25 mg/mL", "result": 0.07011}, {"measurement": "Biofilm Inhibition, Replicate 1", "setting": "E. coli 0157; [Lf] 0.5 mg/mL", "result": 0.04858}, {"measurement": "Biofilm Inhibition, Replicate 2", "setting": "E. coli 0157; [Lf] 0.5 mg/mL", "result": 0.0748}, {"measurement": "Biofilm Inhibition, Replicate 3", "setting": "E. coli 0157; [Lf] 0.5 mg/mL", "result": 0.08915}, {"measurement": "Biofilm Inhibition, Replicate 1", "setting": "E. coli 0157; [Lf] 1 mg/mL", "result": 0.02346}, {"measurement": "Biofilm Inhibition, Replicate 2", "setting": "E. coli 0157; [Lf] 1 mg/mL", "result": 0.09274}, {"measurement": "Biofilm Inhibition, Replicate 3", "setting": "E. coli 0157; [Lf] 1 mg/mL", "result": 0.02898}, {"measurement": "Biofilm Inhibition, Replicate 1", "setting": "E. coli 0157; [Lf] 2 mg/mL", "result": 0.006072}, {"measurement": "Biofilm Inhibition, Replicate 2", "setting": "E. coli 0157; [Lf] 2 mg/mL", "result": 0.01601}, {"measurement": "Biofilm Inhibition, Replicate 3", "setting": "E. coli 0157; [Lf] 2 mg/mL", "result": "−0.01297"}, {"measurement": "Inhibition of Planktonic Growth", "setting": "Bifidobacterium longum", "result": "None"}, {"measurement": "Inhibition of Biofilm Formation", "setting": "Escherichia coli", "result": "Strong (Lf was deemed to have a strong activity if biofilms were eliminated or significantly reduced to less than 90% less than no treatment at concentrations of 10 mg/mL or less after 24 hours of growth)"}, {"measurement": "Inhibition of Biofilm Formation", "setting": "Staphylococcus aureus", "result": "Strong (Lf was deemed to have a strong activity if biofilms were eliminated or significantly reduced to less than 90% less than no treatment at concentrations of 10 mg/mL or less after 24 hours of growth)"}, {"measurement": "Inhibition of Biofilm Formation", "setting": "Cryptococcus neoformans", "result": "Strong (Lf was deemed to have a strong activity if biofilms were eliminated or significantly reduced to less than 90% less than no treatment at concentrations of 10 mg/mL or less after 24 hours of growth)"}, {"measurement": "survival of mice following wounding", "setting": "[3]; freeze dried powder directly into the wound bed, non-sterile housing, study to day 28, all three untreated mice died by day 12", "result": "only one mouse died at day 14 and the other two survived to the conclusion of the study at day 28"}, {"measurement": "toxicity of powder administered to wounds", "setting": "[3]; mice, freeze-dried powder of pure Lf administered to the wounds", "result": "no toxicity was observed"}, {"measurement": "healing of infected chronic wound", "setting": "[4]", "result": "the wound was completely healed after it was checked after three weeks"}, {"measurement": "denaturation peak corresponding to apo-Lf", "setting": "[5]", "result": "~60", "unit": "°C"}, {"measurement": "denaturation peak corresponding to holo-Lf", "setting": "[5]", "result": 90, "unit": "°C"}, {"measurement": "relative ratio of apo to holo-Lactoferrin, DSC peak pattern", "setting": "[5]", "result": "heavily skewed towards apo-Lf"}]}
